What was measured:
[1] = target: T1, quinone oxidoreductase (QorA) (Escherichia coli, UniProt P28304); experiment: NMR shift experiment; also competition with RNA in EMSA and MST; assay type: binding; conditions: 10-20 mM NADPH in the EMSA / MST competition with yffO mRNA fragment; pH 7.5
T1 construct: full-length ORF from ASKA library (pCA24N), N-terminal His-tag, expressed in E. coli BL21-Gold (DE3), IMAC and size exclusion
T1 sequence (P28304 1-327): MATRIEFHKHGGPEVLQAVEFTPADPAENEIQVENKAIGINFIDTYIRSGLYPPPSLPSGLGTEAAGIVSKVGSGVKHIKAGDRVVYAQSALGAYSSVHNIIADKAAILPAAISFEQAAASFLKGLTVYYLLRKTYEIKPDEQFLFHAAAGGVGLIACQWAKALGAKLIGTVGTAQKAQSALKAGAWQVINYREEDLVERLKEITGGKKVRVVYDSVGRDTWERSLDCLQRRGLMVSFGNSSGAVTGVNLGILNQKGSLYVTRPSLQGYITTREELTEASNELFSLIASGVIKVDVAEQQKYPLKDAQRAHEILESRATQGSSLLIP

[2] = target: T2, Quinone oxidoreductase QorA (Escherichia coli K12, UniProt P28304 1-327); experiment: MST; 0.05% Tween-20; 10 nM RNA; 50 mM Tris (HEPES for PykF), 80 mM NaCl, 10 mM KCl, 0.8 mM MgCl2, 0.5 mM DTT, pH 7.5, 30 min at 37 C (EMSA); MST same buffer + 0.05% Tween-20; conditions: protein: recombinant; tags: N-terminal His (pCA24N, ASKA); label: Cy5
T2 sequence: T1 sequence (P28304 1-327)

[3] = target: T2, Quinone oxidoreductase QorA; experiment: EMSA; 350 nM RNA; 50 mM Tris (HEPES for PykF), 80 mM NaCl, 10 mM KCl, 0.8 mM MgCl2, 0.5 mM DTT, pH 7.5, 30 min at 37 C (EMSA); MST same buffer + 0.05% Tween-20; conditions: protein: recombinant; tags: N-terminal His (pCA24N, ASKA); label: 5' 32P
[4] = target: T3, Phosphoglycerate kinase Pgk (Escherichia coli K12, UniProt P0A799 1-387); experiment: EMSA; 30 uM Pgk, 7 uM RNA; stronger than hairpins; 50 mM Tris (HEPES for PykF), 80 mM NaCl, 10 mM KCl, 0.8 mM MgCl2, 0.5 mM DTT, pH 7.5, 30 min at 37 C (EMSA); MST same buffer + 0.05% Tween-20; conditions: protein: recombinant; tags: N-terminal His (pCA24N, ASKA); label: 5' 32P; linear
T3 sequence: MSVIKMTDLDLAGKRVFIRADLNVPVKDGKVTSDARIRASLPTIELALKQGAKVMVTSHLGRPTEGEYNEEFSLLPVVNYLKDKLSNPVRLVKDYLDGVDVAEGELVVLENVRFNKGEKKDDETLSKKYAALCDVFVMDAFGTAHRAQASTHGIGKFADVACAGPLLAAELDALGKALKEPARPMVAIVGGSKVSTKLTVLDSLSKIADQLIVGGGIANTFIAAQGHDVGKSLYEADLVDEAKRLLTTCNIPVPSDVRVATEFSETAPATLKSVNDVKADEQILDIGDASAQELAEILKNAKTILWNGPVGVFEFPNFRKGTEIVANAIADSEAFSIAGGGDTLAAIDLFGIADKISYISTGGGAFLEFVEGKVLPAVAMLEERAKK

MS2 phage coat protein = MS2 phage coat protein (bacteriophage MS2, UniProt P03612 2-130); experiment: EMSA; 0.34-34 uM protein, 700 nM RNA; 50 mM Tris (HEPES for PykF), 80 mM NaCl, 10 mM KCl, 0.8 mM MgCl2, 0.5 mM DTT, pH 7.5, 30 min at 37 C (EMSA); MST same buffer + 0.05% Tween-20; conditions: protein: recombinant; chain copies: 2; label: 5' 32P; hairpin
Chain of MS2 phage coat protein (P03612 2-130): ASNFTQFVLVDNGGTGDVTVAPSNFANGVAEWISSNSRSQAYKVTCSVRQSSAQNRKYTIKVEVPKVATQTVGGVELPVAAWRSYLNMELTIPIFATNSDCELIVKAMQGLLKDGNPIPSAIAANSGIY

**Q.** `NC(=O)C1=CN([C@@H]2O[C@H](COP(=O)(O)OP(=O)(O)OC[C@H]3O[C@@H](n4cnc5c(N)ncnc54)[C@H](OP(=O)(O)O)[C@@H]3O)[C@@H](O)[C@H]2O)C=CC1` [NADPH] was tested. Which “NMR shift experiment; also competition with RNA in EMSA and MST” value [1] did it give?
**A.** Its value is “NMR shift experiments that revealed larger peak shifts for the QorA-NADPH complex”.

**Q.** Which Kd [2] does the source give for GGAGCAUAUGGACUUCAGGGAAGGGAU (ssRNA) [Cy5-yffO mRNA fragment] here?
**A.** The Kd was roughly 7 µM.

**Q.** GGAGCAUAUGGACUUCAGGGAAGGGAU (ssRNA) [yffO mRNA fragment, 27 nt] was tested. Which Kd [3] did it give?
**A.** Its Kd is roughly 7 µM.

**Q.** Does AGGACAAAAACAA (ssRNA) [A-rich linear control RNA] bind [4]?
**A.** Result: binds

**Q.** Does GCACGCGUAUUCACUGAGCAUCAGCCAGACUGUGU (ssRNA) [rffG mRNA fragment] bind (MS2 phage coat protein)?
**A.** Result: binds

— PMC10380284, “Investigating the Prevalence of RNA-Binding Metabolic Enzymes in E. coli” (International Journal of Molecular Sciences, 2023)
